Measurements: patent publication US20220251194A1 (Merck Sharp & Dohme, published 2022)
Numbering of substitutions follows the chain as printed. Names and notes keep the numbering of the source.

B1: Humanized 08A IgG4 Fab 100 S61N G56A (antibody, V domains shown)
VH: EVQLVQSGAEVKKPGASVKVSCKASGYTFTSYYLYWVRQAPGQGLEWIGGVNPSNAGTNFNEKFKSRVTLTVDTSISTAYMELSRLRSDDTAVYYCTRRLSHYDGGFDYWGQGTTVTVSS
VL: DIVMTQTPLSLSVTPGQPASISCRASKSVSTSGFSYLHWYLQKPGQPPQLLIFLSKYRSSGVPDRFSGSGSGTDFTLKISRVEAEDVGVYYCSQAYHLPLTFGQGTKLEIKR
notes: also called 25AVE
B2: Humanized 08A IgG4 S61N (lot 98AIO) (antibody)
heavy: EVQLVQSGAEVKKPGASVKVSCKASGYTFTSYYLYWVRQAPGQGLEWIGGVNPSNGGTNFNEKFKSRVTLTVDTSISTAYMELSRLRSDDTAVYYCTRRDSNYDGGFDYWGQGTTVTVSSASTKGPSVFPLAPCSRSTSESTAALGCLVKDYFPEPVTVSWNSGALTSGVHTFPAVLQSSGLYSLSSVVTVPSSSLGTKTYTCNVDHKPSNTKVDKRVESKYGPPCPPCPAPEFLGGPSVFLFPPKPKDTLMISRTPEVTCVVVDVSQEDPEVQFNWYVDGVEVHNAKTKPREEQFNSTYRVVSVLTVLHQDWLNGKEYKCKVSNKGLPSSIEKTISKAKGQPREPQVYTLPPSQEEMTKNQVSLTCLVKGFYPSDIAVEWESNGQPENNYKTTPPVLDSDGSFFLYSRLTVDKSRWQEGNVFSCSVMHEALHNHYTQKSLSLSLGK
light: DIVMTQTPLSLSVTPGQPASISCRASKSVSTSGFSYLHWYLQKPGQPPQLLIFLASNLESGVPDRFSGSGSGTDFTLKISRVEAEDVGVYYCQHSWELPLTFGQGTKLEIKRTVAAPSVFIFPPSDEQLKSGTASVVCLLNNFYPREAKVQWKVDNALQSGNSQESVTEQDSKDSTYSLSSTLTLSKADYEKHKVYACEVTHQGLSSPVTKSFNRGEC
notes: IgG4 S228P / kappa; also called Humanized x [PD-1_H] mAb (08A/HuPD1A-11 S61N S228P corrected) IgG4 / Kappa
B3: Humanized 08A IgG4 Fab 098 G56A (antibody, V domains shown)
VH: B1 VH with N61S
VL: B1 VL with S55A, K56S, Y57N, R58L, S59E, S93Q, Q94H, A95S, Y96W, H97E
notes: IgG4 S228P / kappa; also called 90AVZ
B4: Humanized 08A IgG4 G56A (antibody, V domains shown)
VH: B1 VH with N61S, L100D, H102N
VL: B1 VL with S55A, K56S, Y57N, R58L, S59E, S93Q, Q94H, A95S, Y96W, H97E
notes: IgG4 S228P / kappa; also called 89AVZ; Humanized x [PD-1_H] mAb (08A/HuPD1A-11 G56A) IgG4 S228P / Kappa
B5: Humanized 08A IgG4 S61N G56A (antibody, V domains shown)
VH: B1 VH with L100D, H102N
VL: B1 VL with S55A, K56S, Y57N, R58L, S59E, S93Q, Q94H, A95S, Y96W, H97E
notes: IgG4 S228P / kappa; also called 51AQK; Humanized x [PD-1_H] mAb (08A/HuPD1A-11 S61N VH G56A / VL) IgG4 S228P / Kappa

target: T1, polyhistidine-tagged human PD-1 (hPD1-His, 98AFK) (human, UniProt Q15116 25-167, limits assumed); test: SPR solution affinity; reference Humanized 08A IgG4 S61N (98AIO)
T1 construct: also called human PD1-His; Human PD-1-His
T1 sequence (Q15116 25-167 limits assumed): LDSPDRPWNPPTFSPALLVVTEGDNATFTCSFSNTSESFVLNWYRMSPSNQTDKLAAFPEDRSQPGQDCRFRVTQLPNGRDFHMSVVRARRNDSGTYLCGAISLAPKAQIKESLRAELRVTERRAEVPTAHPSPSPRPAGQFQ
Procedure: (§1) The titration series were incubated for 16-24 hours to reach equilibrium at room temperature. The unbound sites were measured using a BIAcore chip immobilized with antigen in a competition mode where SPR signal detected corresponded to unbound antibody.
(§2) The titration series following >16 hr. incubation were injected over the sensor chip immobilized with hPD1-His (above). Free, unbound antibodies concentrations were measured as proportional to RU after 120 seconds (for 500 pM mAb series) or 400 seconds (for 100 pM mAb series) of injection at 10 μL/min. After each cycle, surfaces were regenerated with a 30 second injection of 1:1 mixture of 3M MgCl₂ and pH 2.0 10 mM glycine at 30 μL/min.

| KD (REF)/KD | Binder |
| --- | --- |
| > 13 | B1 |
| 1 | B2 |
| 1.7 | B3 |
| 0.6 | B4 |
| 1 | B5 |

target: T1, polyhistidine-tagged human PD-1 …; test: SPR (Biacore T200), mAb captured on anti-Fc chip, hPD1-His as analyte
Procedure: (§3) A surface plasmon resonance (SPR)-based assay utilizing capture mode was used to determine the binding kinetics and affinities of anti-PD-1 antibodies against polyhistidine-tagged human PD-1 (hPD1-His, 98AFK). Following manufacture instructions, a series S sensor chip CM5 (GE Healthcare, BR100530) was activated using an amine-coupling kit (GE Healthcare, BR100050). Either human capture kit (anti-human Fc, 25 μg/mL, GE Healthcare, BR100839) or mouse capture kit (anti-mouse Fc, 30 μg/mL, GE Healthcare, BR100838) antibody diluted in the supplied pH 5.0, 10 mM sodium acetate buffer was immobilized onto the activated surface for 7 minutes. After immobilization, surfaces were deactivated with 1M ethanolamine/HCl (pH 8.5) for 7 minutes.
(§4) Binding kinetics were measured on a biacore T200 in HBS-EP+ (0.01 M HEPES pH 7.4, 0.15 M NaCl, 3 mM EDTA, 0.05% v/v Surfactant P20) running buffer at 25° C. Antibodies were captured either on mouse or human Fc capture surfaces at 10 μL/min flow rate. Antibodies were captured on flow cells 2, 3 and 4. Flow cell 1 was used as a reference with no antibody captured. A 6-point, 2-fold serial dilutions of the analyte 98AFK (hPD1-His), starting at 20 nM, were prepared in the running buffer (HBS-EP+). Two buffer blanks were included for double referencing. Titration series were injected for 3 minutes at 50 μl/min followed by 600 seconds of dissociation. After each cycle, surfaces were regenerated with a 30 second injection of 3M MgCl₂ at […] on the anti-human Fc chip or 180 seconds of 10 mM Glycine pH 1.7 at 10 μl/min on the anti-mouse Fc chip.
(§5) Sensorgram processing and data analysis were performed with Biacore T200 Evaluation Software Version 2.0.4 (GE Healthcare). […] Processed curves were globally fitted to a 1:1 binding model to determine the association rate constant, kₒₙ (M⁻¹s⁻¹, where “M” equals molar and “s” equals seconds) and the dissociation rate constant, koff (s⁻¹). These rate constants were used to calculate the equilibrium dissociation constant, KD (M)=koff/kₒₙ.

| Kd | Binder |
| --- | --- |
| 0.042 nM | B1 |
| 0.054 nM | B2 |
| 0.079 nM | B3 |
| 0.1 nM | B4 |
| 0.057 nM | B5 |

target: T1, polyhistidine-tagged human PD-1 …; test: SPR (Biacore T200), mAb captured on anti-Fc chip; reference Mouse 08A
Procedure: as §3, §4, §5

| KD (REF)/KD | Binder |
| --- | --- |
| 5.7 | B1 |
| 4.4 | B2 |
| 3 | B3 |
| 2.4 | B4 |
| 4.2 | B5 |

target: T1, polyhistidine-tagged human PD-1 …; test: SPR solution affinity (Biacore T200, competition mode, equilibrium titration)
Procedure: as §1, §2

| Kd | Binder |
| --- | --- |
| < 0.0025 nM | B1 |
| 0.033 nM | B2 |
| 0.019 nM | B3 |
| 0.056 nM | B4 |
| 0.033 nM | B5 |
